Reference: publication PMC6987189, “Native aggregation is a common feature among triosephosphate isomerases of different species” (Scientific Reports, 2020)

Key:
Test in all cases: purified protein
Conditions in all cases: GAP to DHAP direction, 25 °C, 100 mM TEA, 10 mM EDTA, 0.2 mM NADH, GAP 0.3 to 3 mM
purified protein [1] = substrate: O=C[C@H](O)COP(=O)(O)O; assay type: biochemical, Entamoeba histolytica
purified protein [2] = substrate: O=C[C@H](O)COP(=O)(O)O; assay type: biochemical, Trypanosoma cruzi
purified protein [3] = substrate: O=C[C@H](O)COP(=O)(O)O; assay type: biochemical, Leishmania mexicana
purified protein [4] = substrate: O=C[C@H](O)COP(=O)(O)O; assay type: biochemical, Taenia solium
purified protein [5] = substrate: O=C[C@H](O)COP(=O)(O)O; assay type: biochemical, Saccharomyces cerevisiae
purified protein [6] = substrate: O=C[C@H](O)COP(=O)(O)O; assay type: biochemical, Plasmodium falciparum
purified protein [7] = substrate: O=C[C@H](O)COP(=O)(O)O; assay type: biochemical, Thermus thermophilus
purified protein [8] = substrate: O=C[C@H](O)COP(=O)(O)O; assay type: biochemical, Trypanosoma brucei

B1: EhTIM (Entamoeba histolytica HM-1:IMSS) (protein)
chain: MSARKFVVGGNWKCNGTLASIETLTKGVAASVDAELAKKVEVIVGVPFIYIPKVQQILAGEANGANILVSAENAWTKSGAYTGEVHVGMLVDCQVPYVILGHSERRQIFHESNEQVAEKVKVAIDAGLKVIACIGETEAQRIANQTEEVVAAQLKAINNAISKEAWKNIILAYEPVWAIGTGKTATPDQAQEVHQYIRKWMTENISKEVAEATRIQYGGSVNPANCNELAKKADIDGFLVGGASLDAAKFKTIINSVSEKF
notes: recombinant, E. coli BL21(DE3)pLysS, plasmid given as pRET, purified; dimer plus higher aggregates
Question: With B1 as the protein, how does the Km (purified protein [1]) read?
Answer: 140 ± 30 µM

Question: And the kcat (purified protein [1])?
Answer: 3650 ± 254 s⁻¹

Question: What about the kcat/Km (purified protein [1]) of the same protein?
Answer: 2.5e+07 M⁻¹ s⁻¹

B2: TcTIM (Trypanosoma cruzi) (protein)
chain: MASKPQPIAAANWKCNGSESLLVPLIETLNAATFDHDVQCVVAPTFLHIPMTKARLTNPKFQIAAQNAITRSGAFTGEVSLQILKDYGISWVVLGHSERRLYYGETNEIVAEKVAQACAAGFHVIVCVGETNEEREAGRTAAVVLTQLAAVAQKLSKEAWSRVVIAYEPVWAIGTGKVATPQQAQEVHELLRRWVRSKLGTDIAAQLRILYGGSVTAKNARTLYQMRDINGFLVGGASLKPEFVEIIEATK
notes: recombinant, E. coli BL21(DE3)pLysS, pET-3a, purified; dimer plus higher aggregates
Question: What does the source list for B2?
Answer: Km (purified protein [2]): 440 ± 50 µM; kcat (purified protein [2]): 6000 ± 230 s⁻¹; kcat/Km (purified protein [2]): 1.36e+07 M⁻¹ s⁻¹

B3: LmTIM (Leishmania mexicana) (protein)
chain: MSAKPQPIAAANWKCNGTTASIEKLVQVFNEHTISHDVQCVVAPTFVHIPLVQAKLRNPKYVISAENAIAKSGAFTGEVSMPILKDIGVHWVILGHSERRTYYGETDEIVAQKVSEACKQGFMVIACIGETLQQREANQTAKVVLSQTSAIAAKLTKDAWNQVVLAYEPVWAIGTGKVATPEQAQEVHLLLRKWVSENIGTDVAAKLRILYGGSVNAANAATLYAKPDINGFLVGGASLKPEFRDIIDATR
notes: recombinant, E. coli BL21(DE3)pLysS, pET-3aHIS (His tag), purified; dimer plus higher aggregates
Question: Which Km (purified protein [3]) does the source give for B3 here?
Answer: 470 ± 10 µM

Question: And the kcat (purified protein [3])?
Answer: 2800 ± 164 s⁻¹

Question: And the kcat/Km (purified protein [3])?
Answer: 5.9e+06 M⁻¹ s⁻¹

B4: TsTIM (Taenia solium) (protein)
chain: MTRKLFVGGNWKMNGSYSHINTFFDTLQKADTDPNADIVIGVPACYLKYAQDKAPKGIKIAAENCYKVGSGAFTGEISTEMIKDCGCEWVILGHSERRHIFGESNELIGEKVKHALDSGLNVIPCIGELLSEREAGKTNDVCFAQMDAIAKNVPSKEAWDKVVIAYEPVWAIGTGKTATPAQAQEVHKVVRDWIRKHVDAGIADKVRILYGGSVTASNAKDLGTQPDVDGFLVGGASLKPDFITIINARR
notes: recombinant, E. coli BL21(DE3)pLysS, pRSET (His tag), purified; dimer plus higher aggregates
Question: Which results are given for B4?
Answer: Km (purified protein [4]): 520 ± 30 µM; kcat (purified protein [4]): 2460 ± 101 s⁻¹; kcat/Km (purified protein [4]): 4.7e+06 M⁻¹ s⁻¹

B5: ScTIM (Saccharomyces cerevisiae S288C) (protein)
chain: ARTFFVGGNFKLNGSKQSIKEIVERLNTASIPENVEVVICPPATYLDYSVSLVKKPQVTVGAQNAYLKASGAFTGENSVDQIKDVGAKWVILGHSERRSYFHEDDKFIADKTKFALGQGVGVILCIGETLEEKKAGKTLDVVERQLNAVLEEVKDWTNVVVAYEPVWAIGTGLAATPEDAQDIHASIRKFLASKLGDKAASELRILYGGSANGSNAVTFKDKADVDGFLVGGASLKPEFVDIINSRN
notes: recombinant, E. coli BL21(DE3)pLysS, plasmid pKK233-3, purified; dimer plus higher aggregates
Question: B5 was tested. Which Km (purified protein [5]) did it give?
Answer: 790 ± 100 µM

Question: And the kcat (purified protein [5])?
Answer: 8690 ± 142 s⁻¹

Question: What about the kcat/Km (purified protein [5]) of the same protein?
Answer: 1.1e+07 M⁻¹ s⁻¹

B6: PfTIM (Plasmodium falciparum) (protein)
chain: MARKYFVAANWKCNGTLESIKSLTNSFNNLDFDPSKLDVVVFPVSVHYDHTRKLLQSKFSTGIQNVSKFGNGSYTGEVSAEIAKDLNIEYVIIGHFERRKYFHETDEDVREKLQASLKNNLKAVVCFGESLEQREQNKTIEVITKQVKAFVDLIDNFDNVILAYEPLWAIGTGKTATPEQAQLVHKEIRKIVKDTCGEKQANQIRILYGGSVNTENCSSLIQQEDIDGFLVGNASLKESFVDIIKSAM
notes: recombinant, E. coli BL21(DE3)pLysS, pTRC99A, purified (extra low-mass band on SDS-PAGE); dimer plus higher aggregates
Question: For B6, which Km (purified protein [6]) is on record?
Answer: 810 ± 40 µM

Question: What about the kcat (purified protein [6]) of the same protein?
Answer: 5846 ± 39 s⁻¹

Question: What about the kcat/Km (purified protein [6]) of the same protein?
Answer: 7.3e+06 M⁻¹ s⁻¹

B7: TtTIM (Thermus thermophilus HB8) (protein)
chain: MRRVLVAGNWKMHKTPSEARVWFAELKRLLPPLQSEAAVLPAFPILPVAKEVLAETQVGYGAQDVSAHKEGAYTGEVSARMLSDLGCRYAIVGHSERRRYHGETDALVAEKAKRLLEEGITPILCVGEPLEVREKGEAVPYTLRQLRGSLEGVEPPGPEALVIAYEPVWAIGTGKNATPEDAEAMHQAIRKALSERYGEAFASRVRILYGGSVNPKNFADLLSMPNVDGGLVGGASLELESFLALLRIAG
notes: as for B3
Question: How did the Km (purified protein [7]) turn out when B7 was run?
Answer: 60 ± 10 µM

Question: And the kcat (purified protein [7])?
Answer: 1788 ± 0.9 s⁻¹

Question: And the kcat/Km (purified protein [7])?
Answer: 3e+07 M⁻¹ s⁻¹

B8: TbTIM (Trypanosoma brucei brucei) (protein)
chain: MSKPQPIAAANWKCNGSQQSLSELIDLFNSTSINHDVQCVVASTFVHLAMTKERLSHPKFVIAAQNAIAKSGAFTGEVSLPILKDFGVNWIVLGHSERRAYYGETNEIVADKVAAAVASGFMVIACIGETLQERESGRTAVVVLTQIAAIAKKLKKADWAKVVIAYEPVWAIGTGKVATPQQAQEAHALIRSWVSSKIGADVAGELRILYGGSVNGKNARTLYQQRDVNGFLVGGASLKPEFVDIIKATQ
notes: as for B2
Question: What does the source list for B8?
Answer: Km (purified protein [8]): 450 ± 50 µM; kcat (purified protein [8]): 5170 ± 117 s⁻¹; kcat/Km (purified protein [8]): 1.15e+07 M⁻¹ s⁻¹
